T1: GFP-Rad55-Rad57 complex (His6-GFP-Rad55 and FLAG-Rad57) (S. cerevisiae, UniProt P38953 1-406; P25301 1-460)
T1 sequence (looked up) 1: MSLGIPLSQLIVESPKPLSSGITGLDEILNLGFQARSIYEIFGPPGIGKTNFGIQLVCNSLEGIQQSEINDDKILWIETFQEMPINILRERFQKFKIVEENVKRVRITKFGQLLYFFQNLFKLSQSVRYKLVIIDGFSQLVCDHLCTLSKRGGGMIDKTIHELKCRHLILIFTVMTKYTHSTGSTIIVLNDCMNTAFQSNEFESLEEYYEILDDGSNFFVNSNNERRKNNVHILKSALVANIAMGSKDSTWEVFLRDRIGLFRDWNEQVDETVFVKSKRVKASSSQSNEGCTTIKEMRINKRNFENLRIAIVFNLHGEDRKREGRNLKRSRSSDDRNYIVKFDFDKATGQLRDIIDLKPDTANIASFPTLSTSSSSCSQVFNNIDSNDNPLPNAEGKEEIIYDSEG
T1 sequence (looked up) 2: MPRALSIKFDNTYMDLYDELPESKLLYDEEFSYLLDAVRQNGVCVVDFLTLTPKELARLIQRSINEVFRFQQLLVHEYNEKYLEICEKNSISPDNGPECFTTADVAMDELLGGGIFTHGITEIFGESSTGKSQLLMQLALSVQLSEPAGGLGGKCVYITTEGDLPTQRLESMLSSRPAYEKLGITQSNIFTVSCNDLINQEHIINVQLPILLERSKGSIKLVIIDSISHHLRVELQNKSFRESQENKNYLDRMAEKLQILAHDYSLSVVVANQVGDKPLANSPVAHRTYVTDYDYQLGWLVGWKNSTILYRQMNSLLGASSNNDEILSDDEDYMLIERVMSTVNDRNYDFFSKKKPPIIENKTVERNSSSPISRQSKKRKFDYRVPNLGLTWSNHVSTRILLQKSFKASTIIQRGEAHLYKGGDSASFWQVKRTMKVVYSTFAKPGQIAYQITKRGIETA

B1: Rad51 (natural protein, S. cerevisiae, UniProt P25454 1-400, looked up)
chain: MSQVQEQHISESQLQYGNGSLMSTVPADLSQSVVDGNGNGSSEDIEATNGSGDGGGLQEQAEAQGEMEDEAYDEAALGSFVPIEKLQVNGITMADVKKLRESGLHTAEAVAYAPRKDLLEIKGISEAKADKLLNEAARLVPMGFVTAADFHMRRSELICLTTGSKNLDTLLGGGVETGSITELFGEFRTGKSQLCHTLAVTCQIPLDIGGGEGKCLYIDTEGTFRPVRLVSIAQRFGLDPDDALNNVAYARAYNADHQLRLLDAAAQMMSESRFSLIVVDSVMALYRTDFSGRGELSARQMHLAKFMRALQRLADQFGVAVVVTNQVVAQVDGGMAFNPDPKKPIGGNIMAHSSTTRLGFKKGKGCQRLCKVVDSPCLPEAECVFAIYEDGVGDPREEDE

How the values were obtained:
[1] = target: B1; test: single-molecule ssDNA curtain
[2] = target: T1, GFP-Rad55-Rad57 complex (His6-GFP-Rad55 …); test: single-molecule ssDNA curtain

Row | binding result [1] | koff [2] [s⁻¹] | Binder
1 | binds | – | Hed1-GFP (natural protein, S. cerevisiae, UniProt Q03937 1-162, looked up) MQQRSNRRSCSYIPLGVHNNAEKSLCTEVAPARKNKRSITTSPIVNINVVERRLFNLELEKQQLRAKNLSENTGGGSPNGGAYLDAKKGVREQDQYQGGPSKELDRLQPPPSMKKSPPRKKKSLKDLIYETNKTFYQVDSNKVKYKVGLSKKQLLPSKTVDN
2 | – | 0.00758 | B1
3 | – | 0.0058 | Rad51-K191R (natural protein, S. cerevisiae, UniProt P25454 1-400, looked up) MSQVQEQHISESQLQYGNGSLMSTVPADLSQSVVDGNGNGSSEDIEATNGSGDGGGLQEQAEAQGEMEDEAYDEAALGSFVPIEKLQVNGITMADVKKLRESGLHTAEAVAYAPRKDLLEIKGISEAKADKLLNEAARLVPMGFVTAADFHMRRSELICLTTGSKNLDTLLGGGVETGSITELFGEFRTGRSQLCHTLAVTCQIPLDIGGGEGKCLYIDTEGTFRPVRLVSIAQRFGLDPDDALNNVAYARAYNADHQLRLLDAAAQMMSESRFSLIVVDSVMALYRTDFSGRGELSARQMHLAKFMRALQRLADQFGVAVVVTNQVVAQVDGGMAFNPDPKKPIGGNIMAHSSTTRLGFKKGKGCQRLCKVVDSPCLPEAECVFAIYEDGVGDPREEDE

Reference: article PMC8262405 (Molecular cell, 2021)
